Measurements from the supplement of paper PMC7125110.
± gives the standard error. For part of these data: This sample holds only a part of the variants without activity.

B1: glmS ribozyme (parent)
chain: AUAAAAGCGCCAGAACUACAGAAAUGUAGUUGACGAGGAGGAGGUUUAUCGAAUUUUCGGCGGAUGCCUCCAAA

Key:
Details in all cases: with glucosamine-6-phosphate
glucosamine-6-phosphate [1] = variants of: B1; experiment: kcat; higher = faster cleavage; RNA array
Method in brief: (§1)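 On sequenced MiSeq chips, barcoded ribozyme variants were made in situ by E. coli RNA polymerase and followed at 37 °C through a hybridised Cy3 probe. Glucosamine-6-phosphate was flowed in at 40 μM to 10 mM in HEPES/KCl/Mg(OAc)2 buffer. Exponential fits to normalised per-tile medians gave kobs, and weighted Michaelis–Menten fits gave kcat and KM.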

glucosamine-6-phosphate [2] = variants of: B1; experiment: KM; higher = weaker cofactor use; RNA array
Method in brief: as §1

glucosamine-6-phosphate [3] = variants of: B1; experiment: self-cleavage kobs at 40 uM GlcN6P; higher = faster cleavage; RNA array
Method in brief: as §1

glucosamine-6-phosphate [4] = variants of: B1; experiment: self-cleavage kobs at 160 uM GlcN6P; higher = faster cleavage; RNA array
Method in brief: as §1

glucosamine-6-phosphate [5] = variants of: B1; experiment: self-cleavage kobs at 640 uM GlcN6P; higher = faster cleavage; RNA array
Method in brief: as §1

glucosamine-6-phosphate [6] = variants of: B1; experiment: self-cleavage kobs at 2500 uM GlcN6P; higher = faster cleavage; RNA array
Method in brief: as §1

glucosamine-6-phosphate [7] = variants of: B1; experiment: self-cleavage kobs at 10000 uM GlcN6P; higher = faster cleavage; RNA array
Method in brief: as §1

Variant	kcat (glucosamine-6-phosphate [1]) [s⁻¹]	KM (glucosamine-6-phosphate [2]) [µM]	self-cleavage kobs at 40 uM GlcN6P (glucosamine-6-phosphate [3]) [s⁻¹]	self-cleavage kobs at 160 uM GlcN6P (glucosamine-6-phosphate [4]) [s⁻¹]	self-cleavage kobs at 640 uM GlcN6P (glucosamine-6-phosphate [5]) [s⁻¹]	self-cleavage kobs at 2500 uM GlcN6P (glucosamine-6-phosphate [6]) [s⁻¹]	self-cleavage kobs at 10000 uM GlcN6P (glucosamine-6-phosphate [7]) [s⁻¹]
A39G C67G	0.00311 ± 0.00098	602 ± 300	0.000189 ± 4.5e-05	0.000603 ± 0.00015	0.00174 ± 0.00035	0.00535 ± 0.0012	0.00223 ± 0.00066
G38A U55G	< 1e-05			< 1e-05			
A39C U65A	0.000512 ± 3.7e-05	4220 ± 530			6.9e-05 ± 1.1e-05	0.000191 ± 2.8e-05	0.000359 ± 4.1e-05
A39G A53G	0.0916 ± 0.024	2770 ± 830	0.0015 ± 0.00022	0.00433 ± 0.00068	0.0194 ± 0.0037	0.0404 ± 0.015	0.0725 ± 0.019
A39C G44A	3.56e-05 ± 1.2e-05					5.47e-05 ± 1.1e-05	2.63e-05 ± 8.1e-06
A39C U56G	0.00414 ± 0.0013	4460 ± 1800	5.55e-05 ± 7.3e-06	0.000133 ± 1.4e-05	0.000539 ± 6.5e-05	0.00125 ± 0.00015	0.00322 ± 0.00035
G38U U49A C67A	1.26e-05 ± 4.6e-06						
A39G U46A	0.00547 ± 0.00066	2120 ± 360	0.000116 ± 3.8e-05	0.000377 ± 0.0001	0.00116 ± 0.00029	0.00325 ± 0.00083	0.00435 ± 0.0014
G37C C67A	< 1e-05	2800 ± 950		< 1e-05			
A39G C50A G51U C71G	1.15e-05 ± 3.2e-06						
A39G A64G	0.127 ± 0.027	5960 ± 1400	0.000853 ± 0.00016	0.00322 ± 0.00052	0.0131 ± 0.0018	0.0328 ± 0.0078	0.0876 ± 0.026
A39C G66A	0.004 ± 0.00092	2860 ± 890	7.75e-05 ± 1.2e-05	0.000194 ± 3.3e-05	0.000666 ± 8.8e-05	0.00181 ± 0.00027	0.0033 ± 0.00049
G40A U56C	0.000181 ± 2.6e-05	2280 ± 720			4.68e-05 ± 8.5e-06	8.42e-05 ± 1.1e-05	0.000157 ± 1.9e-05
G40A U56A	0.00543 ± 0.0016	3080 ± 1300	9.01e-05 ± 2.5e-05	0.000256 ± 5.7e-05	0.00103 ± 0.00021	0.00192 ± 0.00042	0.00516 ± 0.0011
